Measured values reported in the Human Domainome abundance scans (Beltran et al. 2025).
± gives the uncertainty stated by the source.

B1: Arginine-glutamic acid dipeptide repeats protein, residues 502 to 543; numbered along this chain, Q9P2R6 (parent)
chain: LKGYACRHCFTTTSKDWHHGGRENILLCTDCRIHFKKYGELP
B2: Peroxisome proliferator-activated receptor delta, residues 71 to 145; numbered along this chain, Q03181 (parent)
chain: NMECRVCGDKASGFHYGVHACEGCKGFFRRTIRMKLEYEKCERSCKIQKKNRNKCQYCRFQKCLALGMSHNAIRF

Variants of: B1
Assay: abundance fitness (aPCA) (normalised: wild type 0, dead -1); higher = more abundant; growth selection in yeast, the domain comes from the species named
Conditions: Homo sapiens

Variant	abundance fitness
D30C	-0.248 ± 0.12
D30Q	-0.07 ± 0.043
D30K	-0.098 ± 0.045
D30M	-0.157 ± 0.06
D30P	-0.058 ± 0.059
D30L	-0.29 ± 0.051
D30W	-0.352 ± 0.039
T12W	-0.669 ± 0.058
T12R	-0.141 ± 0.034
T12L	-0.338 ± 0.039
T12S	-0.205 ± 0.044
T12N	-0.251 ± 0.13
T12G	-0.312 ± 0.032
T12A	-0.234 ± 0.038
G21W	-0.493 ± 0.055
G21N	-0.515 ± 0.14
G21R	-0.369 ± 0.038
G21P	-0.24 ± 0.035
G21Q	-0.222 ± 0.047
G21H	-0.044 ± 0.47
D16C	-0.633 ± 0.47
D16M	-0.397 ± 0.039
D16G	-0.342 ± 0.038
D16R	-0.451 ± 0.038
D16P	-0.701 ± 0.08
D16L	-0.442 ± 0.037

Variant	abundance fitness
D16K	-0.154 ± 0.049
W17S	-0.198 ± 0.051
W17V	-0.157 ± 0.039
W17K	-0.274 ± 0.057
W17L	-0.186 ± 0.036
L27I	-0.172 ± 0.058
L27V	-0.276 ± 0.034
L27F	-0.444 ± 0.07
L27H	-0.086 ± 0.15
L27D	-0.541 ± 0.081
C6Y	-1.05 ± 0.13
C6G	-0.878 ± 0.048
C6Q	-0.894 ± 0.069
C6T	-0.902 ± 0.08
C6L	-1 ± 0.072
C6E	-0.702 ± 0.059
C28K	-0.841 ± 0.11
C28L	-1.13 ± 0.11
C28G	-0.798 ± 0.046
C28F	-0.789 ± 0.17
C28H	-0.872 ± 0.18
H19R	-0.047 ± 0.034
H19W	-0.204 ± 0.044
H19A	-0.048 ± 0.035
H19M	0.008 ± 0.048
H19C	-0.033 ± 0.083

Variant	abundance fitness
I25G	-0.264 ± 0.039
I25Q	-0.099 ± 0.047
I25V	-0.015 ± 0.038
K2D	-0.004 ± 0.047
K2E	-0.038 ± 0.05
K2N	-0.046 ± 0.048
K2G	-0.12 ± 0.041
K2H	-0.374 ± 0.078
K2P	-0.357 ± 0.057
I33D	0.117 ± 0.054
I33H	0.017 ± 0.085
I33F	-0.079 ± 0.11
I33E	0.081 ± 0.04
I33G	0.104 ± 0.036
I33S	0.017 ± 0.039
I33Y	-0.01 ± 0.063
I33L	0.074 ± 0.043
I33C	0.103 ± 0.047
I33Q	0.074 ± 0.038
I33V	0.068 ± 0.037
G3H	-0.058 ± 0.065
G3V	-0.218 ± 0.034
G3E	-0.2 ± 0.053
G3R	-0.135 ± 0.034
G3C	-0.226 ± 0.062
H34T	-0.204 ± 0.047

Variant	abundance fitness
H34R	-0.258 ± 0.032
H34F	-0.218 ± 0.094
H34E	-0.242 ± 0.037
H34S	-0.04 ± 0.041
H34P	-0.805 ± 0.21
T13L	-0.223 ± 0.054
T13I	-0.282 ± 0.08
T13F	-0.179 ± 0.11
T13K	0.018 ± 0.052
T13N	-0.043 ± 0.1
A5M	-0.046 ± 0.058
A5T	0.04 ± 0.043
A5L	-0.018 ± 0.036
A5R	0.012 ± 0.035
L26K	-0.268 ± 0.062
L26S	-0.36 ± 0.046
L26E	-0.167 ± 0.054
L26P	-0.21 ± 0.063
L26Y	-0.403 ± 0.11
N24E	-0.105 ± 0.041
N24C	-0.349 ± 0.086
N24I	-0.299 ± 0.086
N24F	-0.242 ± 0.062
N24P	-0.261 ± 0.049
N24S	0 ± 0.035
F10N	-0.238 ± 0.058

Variant	abundance fitness
F10W	-0.054 ± 0.036
F10R	-0.014 ± 0.032
F10H	0.134 ± 0.094
K15R	-0.053 ± 0.037
K15D	-0.099 ± 0.1
K15Y	-0.229 ± 0.09
K15C	-0.313 ± 0.045
K15H	-0.041 ± 0.06
G39I	-0.726 ± 0.17
G39F	-0.393 ± 0.14
G39C	-0.142 ± 0.26
G39P	-0.478 ± 0.061
G39W	-0.301 ± 0.038
G39M	-0.328 ± 0.065
G39T	-0.291 ± 0.05
P42G	-0.519 ± 0.12
P42Q	-0.349 ± 0.073
P42E	-0.3 ± 0.09
K36L	-0.068 ± 0.042
K36E	-0.012 ± 0.039
K36T	0.009 ± 0.055
K36M	-0.095 ± 0.051
K36G	0.079 ± 0.033
R22Q	0.029 ± 0.053
R22Y	0.113 ± 0.095
R22T	0.011 ± 0.042

Variant	abundance fitness
R22D	-0.026 ± 0.041
R22W	-0.132 ± 0.039
R22E	-0.02 ± 0.043
R22C	-0.067 ± 0.048
R22L	-0.081 ± 0.043
L1S	-0.003 ± 0.037
L1V	0.054 ± 0.047
L1F	0.014 ± 0.049
C9D	-0.547 ± 0.061
C9Y	-0.426 ± 0.087
C9W	-0.645 ± 0.061
C9A	-0.425 ± 0.043
C9L	-0.517 ± 0.042
C9K	-0.371 ± 0.094
C9M	-0.542 ± 0.063
G20L	-0.32 ± 0.056
G20P	-0.375 ± 0.072
G20Y	-0.422 ± 0.36
G20R	-0.45 ± 0.038
G20Q	-0.179 ± 0.059
G20E	-0.066 ± 0.036
G20M	-0.205 ± 0.042
G20H	-0.203 ± 0.048
F35W	0.001 ± 0.037
F35P	-0.422 ± 0.064
F35G	-0.287 ± 0.031

Variant	abundance fitness
F35R	-0.236 ± 0.034
F35N	-0.245 ± 0.14
F35H	-0.015 ± 0.068
F35S	-0.187 ± 0.038
H18Q	0.09 ± 0.064
H18R	-0.193 ± 0.044
H18S	0.004 ± 0.038
H18G	0.057 ± 0.031
H18L	-0.042 ± 0.044
H18N	-0.132 ± 0.051
H18A	0.09 ± 0.044
H18F	-0.005 ± 0.046
R32D	-0.001 ± 0.045
R32H	-0.037 ± 0.12
R32F	0.021 ± 0.061
R32G	-0.029 ± 0.033
R32A	-0.011 ± 0.038
R32P	-0.612 ± 0.072
E40S	-0.077 ± 0.037
E40N	-0.116 ± 0.056
E40G	-0.136 ± 0.033
E40A	-0.066 ± 0.034
E40W	-0.265 ± 0.038
E40L	-0.122 ± 0.038
E40H	-0.11 ± 0.073
H8C	-0.259 ± 0.052

Variant	abundance fitness
Y38H	-0.111 ± 0.26
Y38P	-0.215 ± 0.056
Y38F	-0.069 ± 0.062
Y38E	0.018 ± 0.041
Y38D	-0.114 ± 0.047
Y38T	0.123 ± 0.059
Y38W	-0.074 ± 0.049
Y38N	0.083 ± 0.087
Y4Q	-0.273 ± 0.044
Y4D	-0.037 ± 0.048
Y4A	-0.198 ± 0.039
Y4E	-0.135 ± 0.04
Y4W	-0.22 ± 0.04
Y4G	-0.207 ± 0.032
Y4S	-0.075 ± 0.038
Y4V	-0.181 ± 0.039
K37S	-0.052 ± 0.051
K37W	-0.135 ± 0.044
K37N	-0.09 ± 0.068
K37E	-0.04 ± 0.047
K37V	-0.149 ± 0.036
T11N	-0.168 ± 0.066
T11M	-0.413 ± 0.045
T11G	-0.241 ± 0.032
T11I	-0.204 ± 0.05
T11Y	-0.607 ± 0.066

Variant	abundance fitness
T11P	-0.51 ± 0.066
T11E	-0.4 ± 0.047
T11A	-0.136 ± 0.035
T29G	-0.13 ± 0.033
T29M	-0.192 ± 0.058
T29K	-0.145 ± 0.045
E23L	-0.225 ± 0.035
E23H	-0.185 ± 0.25
E23N	-0.099 ± 0.061
E23T	-0.104 ± 0.043
E23I	-0.322 ± 0.058
E23Q	-0.038 ± 0.043
E23R	-0.255 ± 0.036
E23G	-0.113 ± 0.038
L41N	-0.366 ± 0.055
L41A	-0.317 ± 0.041
L41M	-0.126 ± 0.057
L41F	0.271 ± 0.33
L41P	-0.253 ± 0.041
L41V	-0.246 ± 0.039
L41S	-0.325 ± 0.045
L41E	-0.301 ± 0.039
L41Q	-0.327 ± 0.078
L41Y	-0.22 ± 0.097
C31P	-1.07 ± 0.15
C31Q	-1.14 ± 0.19

Variant	abundance fitness
C31V	-1.08 ± 0.079
C31E	-0.742 ± 0.05
R7N	-0.115 ± 0.059
R7Y	-0.056 ± 0.045
R7L	-0.067 ± 0.035
R7F	-0.185 ± 0.1
R7G	0.029 ± 0.031
R7M	-0.02 ± 0.042
R7W	-0.195 ± 0.039
R7S	0.021 ± 0.037
R7H	-0.441 ± 0.19
R7E	0.064 ± 0.052
R7V	-0.098 ± 0.034
S14P	-0.361 ± 0.048
S14C	-0.315 ± 0.068
S14K	-0.066 ± 0.12
S14G	-0.291 ± 0.035
S14Y	-0.473 ± 0.09
S14E	-0.223 ± 0.043
S14T	-0.226 ± 0.049
S14I	-0.454 ± 0.22

Variants of: B2
Assay: as above
Conditions: Homo sapiens

Variant	abundance fitness
I73C	0.047 ± 0.057
I73H	-0.017 ± 0.069
I73N	0.039 ± 0.077
I73R	-0.117 ± 0.036
I73E	0.288 ± 0.043
I73D	0.119 ± 0.055
I73K	-0.05 ± 0.062
I73M	0.137 ± 0.051
I73T	0.184 ± 0.041
I73W	-0.152 ± 0.049
I73P	0.215 ± 0.044
I73Q	0.078 ± 0.053
I73F	-0.094 ± 0.069
I73G	0.136 ± 0.033
I73L	0.087 ± 0.037
I73S	0.071 ± 0.035
I73A	0.202 ± 0.038
I73Y	-0.097 ± 0.072
A72L	-0.144 ± 0.041
A72K	-0.175 ± 0.067
A72Y	-0.156 ± 0.09
A72I	-0.297 ± 0.1
A72D	0.132 ± 0.048
A72M	0.019 ± 0.059
A72C	-0.126 ± 0.063
A72F	-0.27 ± 0.1
A72S	0.052 ± 0.04

Variant	abundance fitness
A72N	-0.092 ± 0.084
A72Q	0.008 ± 0.058
A72R	-0.257 ± 0.043
A72H	0.047 ± 0.069
A72W	-0.353 ± 0.061
A72E	0.122 ± 0.042
A72T	-0.248 ± 0.065
A72G	0.059 ± 0.03
R74Q	0.284 ± 0.06
R74N	0.011 ± 0.15
R74F	0.049 ± 0.18
R74M	0.004 ± 0.081
R74P	0.151 ± 0.047
R74T	0.071 ± 0.062
R74W	-0.084 ± 0.06
R74A	0.079 ± 0.05
R74V	-0.013 ± 0.061
R74K	0.067 ± 0.075
R74I	0.001 ± 0.11
R74Y	-0.081 ± 0.14
R74E	0.259 ± 0.052
R74S	0.093 ± 0.046
R74C	-0.141 ± 0.099
R74G	0.224 ± 0.038
F75K	0.238 ± 0.11
F75E	0.088 ± 0.09
F75R	0.066 ± 0.054

Variant	abundance fitness
F75M	-0.192 ± 0.12
F75N	-0.021 ± 0.094
F75L	0.128 ± 0.05
F75Y	0.026 ± 0.072
F75S	0.216 ± 0.049
F75C	0.193 ± 0.064
F75A	0.15 ± 0.08
F75W	0.176 ± 0.12
F75V	0.015 ± 0.062
F75D	0.285 ± 0.09
F75P	0.152 ± 0.057
F75I	-0.023 ± 0.09
F75G	0.218 ± 0.047
F75T	0.171 ± 0.069
F75Q	0.301 ± 0.093
N71K	-0.127 ± 0.051
N71P	0.095 ± 0.047
N71W	-0.362 ± 0.059
N71Y	-0.337 ± 0.089
N71I	-0.361 ± 0.14
N71L	-0.412 ± 0.054
N71V	-0.31 ± 0.046
N71R	-0.242 ± 0.036
N71Q	0.034 ± 0.051
N71M	-0.394 ± 0.081
